Values of other authors, collected in paper PMC2656815.

Molecular target: CRF1 receptor N-domain (Homo sapiens) (UniProt P34998)
UniProt P34998, sequence (P34998 24-119): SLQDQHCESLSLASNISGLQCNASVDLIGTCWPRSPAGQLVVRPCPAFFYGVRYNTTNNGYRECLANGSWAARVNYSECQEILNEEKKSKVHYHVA

Substance: CRF (from UniProt P06850)
- Kd: 0.05 µM
